In US20040115656A1 one finds luciferase activity of AFP promoter (ARE) reporter in MCF7 and G2 cells (times (relative to the control reporter)) data, which are given here for one substance.

The target of the assay is androgen receptor (UniProt P10275). Put plainly: cell-based or functional assay.
Chain of UniProt P10275 (P10275 whole entry): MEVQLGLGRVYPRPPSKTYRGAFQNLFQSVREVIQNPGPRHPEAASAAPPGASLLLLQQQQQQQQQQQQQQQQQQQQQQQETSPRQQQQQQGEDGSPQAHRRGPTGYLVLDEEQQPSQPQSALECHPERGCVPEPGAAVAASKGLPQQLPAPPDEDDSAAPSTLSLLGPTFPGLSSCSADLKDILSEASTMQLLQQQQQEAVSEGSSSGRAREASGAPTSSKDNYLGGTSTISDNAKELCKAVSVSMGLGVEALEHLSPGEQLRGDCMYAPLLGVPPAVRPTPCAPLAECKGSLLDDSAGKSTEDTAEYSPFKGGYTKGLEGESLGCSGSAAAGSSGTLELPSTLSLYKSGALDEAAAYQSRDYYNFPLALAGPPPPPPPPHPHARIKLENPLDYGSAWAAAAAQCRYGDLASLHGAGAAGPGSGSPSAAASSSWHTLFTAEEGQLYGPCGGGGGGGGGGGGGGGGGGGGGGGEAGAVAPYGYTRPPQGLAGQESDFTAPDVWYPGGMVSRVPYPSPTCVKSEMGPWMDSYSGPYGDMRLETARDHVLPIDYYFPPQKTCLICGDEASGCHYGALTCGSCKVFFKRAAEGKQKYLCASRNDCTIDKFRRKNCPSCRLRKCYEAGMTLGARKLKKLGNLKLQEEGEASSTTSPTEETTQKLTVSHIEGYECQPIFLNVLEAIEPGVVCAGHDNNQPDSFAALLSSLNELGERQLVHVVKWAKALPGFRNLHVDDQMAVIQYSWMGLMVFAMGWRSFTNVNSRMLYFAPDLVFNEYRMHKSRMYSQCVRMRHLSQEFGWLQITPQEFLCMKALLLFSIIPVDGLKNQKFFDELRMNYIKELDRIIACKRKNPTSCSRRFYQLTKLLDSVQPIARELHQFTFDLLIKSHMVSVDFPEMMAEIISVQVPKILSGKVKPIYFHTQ

“human androgen receptor down-regulatory-associated protein” returned a luciferase activity of AFP promoter (ARE) reporter in MCF7 and G2 cells (times (relative to the control reporter)) of 2.
